# Measured values reported in patent US20180044427A1 (Janssen / Centocor, published 2018).
# T1: human FcγRIIA (NM_021642) (human, UniProt P12318 36-317)
# T1 construct: Transiently expressed on Expi293F cells
# T1 sequence: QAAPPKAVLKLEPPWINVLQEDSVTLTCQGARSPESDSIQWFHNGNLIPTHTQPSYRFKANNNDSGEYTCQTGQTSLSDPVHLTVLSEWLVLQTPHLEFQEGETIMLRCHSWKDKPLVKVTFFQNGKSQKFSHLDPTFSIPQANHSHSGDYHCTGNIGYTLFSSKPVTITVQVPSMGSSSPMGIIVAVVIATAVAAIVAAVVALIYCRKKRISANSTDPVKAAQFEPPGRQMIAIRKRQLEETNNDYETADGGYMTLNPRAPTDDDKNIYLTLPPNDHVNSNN
# T2: human FcγRIIB (NM_004001) (human, UniProt P31994 43-310)
# T2 construct: Transiently expressed on Expi293F cells
# T2 sequence: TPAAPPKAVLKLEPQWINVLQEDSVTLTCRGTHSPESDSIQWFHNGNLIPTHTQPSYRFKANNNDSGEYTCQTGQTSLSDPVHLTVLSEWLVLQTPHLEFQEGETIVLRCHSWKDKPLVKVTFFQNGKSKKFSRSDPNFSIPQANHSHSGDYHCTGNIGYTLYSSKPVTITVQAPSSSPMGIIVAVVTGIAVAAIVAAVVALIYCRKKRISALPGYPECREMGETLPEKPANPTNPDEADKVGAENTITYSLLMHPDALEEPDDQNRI
# Legend:
# human FcγRI (NM_000566) = biological target: T3, human FcγRI (NM_000566) (human, UniProt P12314 16-374); assay: flow cytometry on transiently transfected Expi293F cells
# T3 construct: Transiently expressed on Expi293F cells
# T3 sequence (P12314 16-374 limits assumed): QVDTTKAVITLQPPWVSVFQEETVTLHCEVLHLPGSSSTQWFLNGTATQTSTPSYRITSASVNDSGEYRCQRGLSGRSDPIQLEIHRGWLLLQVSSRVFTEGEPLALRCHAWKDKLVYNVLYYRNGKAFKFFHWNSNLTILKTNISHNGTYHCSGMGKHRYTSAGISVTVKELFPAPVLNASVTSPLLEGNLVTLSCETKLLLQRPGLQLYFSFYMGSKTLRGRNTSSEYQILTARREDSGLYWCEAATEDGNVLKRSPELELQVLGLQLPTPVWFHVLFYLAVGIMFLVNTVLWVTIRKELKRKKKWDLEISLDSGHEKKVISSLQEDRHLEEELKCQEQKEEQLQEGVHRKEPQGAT
# Protocol: (§1) Plasmids expressing cDNAs encoding human FcγRI (NM_000566) (SEQ ID NO: 59), FcγRIIA (NM_021642) (SEQ ID NO: 60), FcγRIIB (NM_004001) (SEQ ID NO: 61), and FcγRIIIA (NM_000569) (SEQ ID NO: 62) (Origene) were transiently transfected into Expi293F cells by ExpiFectamine293 transfection kit (Life Technologies). Flow cytometry assays were performed 48 h after transfection. […] Raji cells (ATCC: CCL-86) were also employed to test the binding of anti-OX40 antibody to FcγRIIB receptor.
# (§2) 2×10⁵ cells per well were seeded in 96-well plate and blocked in BSA Stain Buffer (BD Biosciences, San Jose, USA) for 30 min at 4° C. Cells were incubated with test antibody on ice for 1.5 h at 4° C. After being washed twice with BSA stain buffer, the cells were incubated with R-PE labeled anti-human or anti-mouse IgG secondary antibody (Jackson Immunoresearch Laboratories) for 45 min at 4° C. The cells were washed twice in stain buffer and then resuspended in 150 μL of Stain Buffer containing 1:200 diluted DRAQ7 live/dead stain (Cell Signaling Technology, Danvers, USA). PE and DRAQ7 signals of the stained cells were detected by Miltenyi MACSQuant flow cytometer (Miltenyi Biotec, Auburn, USA) using B2 and B4 channel respectively. Live cells were gated on DRAQ7 exclusion and the geometric mean fluorescence signals were determined for at least 10,000 live events collected. FlowJo software (Tree Star) was used for analysis. Data was plotted as the logarithm of antibody concentration versus mean fluorescence signals. Nonlinear regression analysis was performed by GraphPad Prism 6 (GraphPad Software, Inc.) and EC₅₀ values were calculated.
# (§3) The binding of engineered anti-OX40 SF2 antibodies to various FcγR receptors expressed on transiently-transfected Expi293F cells were assessed by flow cytometry as described in Example 3.
# [1] = biological target: T4, human FcγRIIIA (NM_000569) (human, UniProt P08637 17-254); assay: as above
# T4 construct: Transiently expressed on Expi293F cells
# T4 sequence (P08637 17-254 limits assumed): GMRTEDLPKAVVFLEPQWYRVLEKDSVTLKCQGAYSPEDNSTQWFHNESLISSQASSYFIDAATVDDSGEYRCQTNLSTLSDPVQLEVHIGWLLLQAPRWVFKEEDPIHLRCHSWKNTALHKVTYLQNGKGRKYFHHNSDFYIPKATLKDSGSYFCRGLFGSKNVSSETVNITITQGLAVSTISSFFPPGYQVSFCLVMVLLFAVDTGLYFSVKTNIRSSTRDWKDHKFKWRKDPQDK
# Protocol: as §1, §2, §3
# [2] = biological target: T1, human FcγRIIA (NM_021642); assay: as above
# Protocol: as §1, §2, §3
# [3] = biological target: T2, human FcγRIIB (NM_004001); assay: as above
# Protocol: as §1, §2, §3
# [4] = biological target: T5, recombinant human FcRn extracellular domain with a poly-histidine affinity tag (FcRn-His6) (human, UniProt P55899 24-297); assay: competitive binding assay on plate-captured FcRn-His6 at pH 6.0; competitor: biotinylated human IgG1 indicator antibody at 1 µg/mL
# T5 construct: extracellular domain
# T5 sequence (P55899 24-297, form in doubt): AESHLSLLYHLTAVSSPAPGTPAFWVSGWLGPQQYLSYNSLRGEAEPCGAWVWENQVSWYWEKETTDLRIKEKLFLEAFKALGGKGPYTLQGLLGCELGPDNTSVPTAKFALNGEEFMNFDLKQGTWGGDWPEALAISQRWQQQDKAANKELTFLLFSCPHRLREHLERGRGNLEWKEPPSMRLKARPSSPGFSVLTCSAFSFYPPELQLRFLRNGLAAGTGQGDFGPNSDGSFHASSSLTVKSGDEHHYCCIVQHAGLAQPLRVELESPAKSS
# Protocol: A competitive binding assay was used to assess relative affinities of different antibody samples to a recombinant human FcRn extracellular domain with a poly-histidine affinity tag (FcRn-His6). Ninety-six-well copper-coated plates (Thermo Scientific) were used to capture FcRn-His6 at 5 μg/mL in PBS, after which plates were washed with 0.15M NaCl, 0.02% Tween 20, and then incubated with blocking reagent (0.05M MES [2-(N-morpholino) ethanesulfonic acid], 0.025% bovine serum albumin (BSA), 0.001% Tween-20, pH 6.0, 10% chemiBLOCKER (Millipore)). […] Plates were incubated at room temperature for 1 hour, washed three times as above, and then incubated with a 1:10,000 dilution of streptavidin-horseradish peroxidase (HRP) (Jackson ImmunoResearch Laboratories) at room temperature for 30 minutes to bind biotinylated antibody. Plates were washed five times as above, and bound streptavidin-HRP detected by adding TMB (3,3′,5,5′-tetramethylbenzidine) peroxidase substrate with stable stop (Fitzgerald Industries International) and incubating for 4 minutes. Color development was stopped by addition of 0.5 M HCl. Optical densities were determined with a SpectraMax Plus384 plate reader (Molecular Devices) at 450 nm wavelength.
Binder,EC50 (human FcγRI (NM_000566)) [µg/mL],EC50 [1] [µg/mL],EC50 [2] [µg/mL],EC50 [3] [µg/mL],IC50 [4] [µg/mL]
OX40SF2IgG1 (antibody) chain 1: not shown chain 2: DIQMTQSPSSLSASVGDRVTITCKASQDVGAAVAWYQQKPGKAPKLLIYWASTRHTGVPSRFSGSGSGTDFTLTISSLQPEDFATYYCQQYINYPLTFGGGTKVEIKRTVAAPSVFIFPPSDEQLKSGTASVVCLLNNFYPREAKVQWKVDNALQSGNSQESVTEQDSKDSTYSLSSTLTLSKADYEKHKVYACEVTHQGLSSPVTKSFNRGEC,0.326,0.744,4.56,> 10,
"OX40SF2IgG1T437R (antibody, also called SF2 antibody with T437R) heavy: not shown VL: DIQMTQSPSSLSASVGDRVTITCKASQDVGAAVAWYQQKPGKAPKLLIYWASTRHTGVPSRFSGSGSGTDFTLTISSLQPEDFATYYCQQYINYPLTFGGGTKVEIK",0.24,1.14,4.13,> 10,1.1
OX40SF2IgG1T437R/K248E (antibody) heavy: not shown VL: DIQMTQSPSSLSASVGDRVTITCKASQDVGAAVAWYQQKPGKAPKLLIYWASTRHTGVPSRFSGSGSGTDFTLTISSLQPEDFATYYCQQYINYPLTFGGGTKVEIK,0.248,1.56,3.39,> 10,1.6
